The assay deals with T1, human high affinity trimeric IL-2 receptor (CD25/CD122/CD132) (human, UniProt P01589 22-272; P14784 27-551; P31785 23-369).
T1 sequence 1: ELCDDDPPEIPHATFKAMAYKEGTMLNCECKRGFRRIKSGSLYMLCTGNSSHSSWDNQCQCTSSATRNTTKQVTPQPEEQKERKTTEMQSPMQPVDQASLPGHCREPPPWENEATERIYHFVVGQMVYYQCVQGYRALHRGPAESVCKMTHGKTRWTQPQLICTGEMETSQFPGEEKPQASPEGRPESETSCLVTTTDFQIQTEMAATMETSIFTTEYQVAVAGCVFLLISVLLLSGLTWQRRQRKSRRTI
T1 sequence 2: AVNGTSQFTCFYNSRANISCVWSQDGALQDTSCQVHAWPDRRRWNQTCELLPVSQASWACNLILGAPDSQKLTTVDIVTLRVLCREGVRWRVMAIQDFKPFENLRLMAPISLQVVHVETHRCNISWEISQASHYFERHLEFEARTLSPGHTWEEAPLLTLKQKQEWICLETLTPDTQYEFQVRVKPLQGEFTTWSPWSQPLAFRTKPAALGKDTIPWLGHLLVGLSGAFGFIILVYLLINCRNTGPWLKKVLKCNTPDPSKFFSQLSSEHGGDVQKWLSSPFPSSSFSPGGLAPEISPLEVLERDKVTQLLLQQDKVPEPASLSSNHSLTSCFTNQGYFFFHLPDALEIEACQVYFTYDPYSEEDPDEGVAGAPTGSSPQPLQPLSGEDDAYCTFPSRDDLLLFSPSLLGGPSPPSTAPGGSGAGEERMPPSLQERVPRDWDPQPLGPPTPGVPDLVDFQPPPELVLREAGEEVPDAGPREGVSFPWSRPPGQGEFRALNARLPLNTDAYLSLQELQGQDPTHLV
T1 sequence 3: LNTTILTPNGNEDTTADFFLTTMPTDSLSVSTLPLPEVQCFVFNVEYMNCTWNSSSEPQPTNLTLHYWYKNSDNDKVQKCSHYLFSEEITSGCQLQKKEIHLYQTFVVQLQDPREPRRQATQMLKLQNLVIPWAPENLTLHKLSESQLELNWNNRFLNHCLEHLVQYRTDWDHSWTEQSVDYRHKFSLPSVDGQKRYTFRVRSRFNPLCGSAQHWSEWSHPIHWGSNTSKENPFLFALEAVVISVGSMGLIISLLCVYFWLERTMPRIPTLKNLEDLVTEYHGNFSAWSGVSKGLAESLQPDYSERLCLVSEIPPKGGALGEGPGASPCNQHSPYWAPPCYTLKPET
As to the kind of experiment: cell-based or functional assay.

B1: hIL2 mutein REH (L18R, Q22E, Q126H) (ligand)
chain: APTSSSTKKTQLQLEHLRLDLEMILNGINNYKNPKLTRMLTFKFYMPKKATELKHLQCLEEELKPLEEVLNLAQSKNFHLRPRDLISNINVIVLELKGSETTFMCEYADETATIVEFLNRWITFCHSIISTLT
With B1, the “pSTAT5 ratio YT CD25/YT, dilution factor 2, lower table” value came out at 0.8; the “pSTAT5 ratio YT CD25/YT, dilution factor 2, upper table” value amounted to 0.9; the “pSTAT5 ratio YT CD25/YT, dilution factor 4, lower table” value is 0.9; the “pSTAT5 ratio YT CD25/YT, dilution factor 4, upper table” value came out at 1. The “pSTAT5 ratio YT CD25/YT, dilution factor 8, lower table” value was 1; the “pSTAT5 ratio YT CD25/YT, dilution factor 8, upper table” value was determined as 1.1; the “pSTAT5 ratio YT CD25/YT, dilution factor 16, lower table” value turned out to be 1.3; the “pSTAT5 ratio YT CD25/YT, dilution factor 16, upper table” value was found to be 1.3. In addition, the “pSTAT5 ratio YT CD25/YT, dilution factor 32, lower table” value was 1.6; the “pSTAT5 ratio YT CD25/YT, dilution factor 32, upper table” value was 1.8; the “pSTAT5 ratio YT CD25/YT, dilution factor 64, lower table” value amounted to 2.4; the “pSTAT5 ratio YT CD25/YT, dilution factor 64, upper table” value stood at 2.9. The “pSTAT5 ratio YT CD25/YT, dilution factor 128, lower table” value was 3.9 and the “pSTAT5 ratio YT CD25/YT, dilution factor 128, upper table” value was 4.7.

B2: HEH (ligand)
cytokine: APTSSSTKKTQLQLEHLHLDLEMILNGINNYKNPKLTRMLTFKFYMPKKATELKHLQCLEEELKPLEEVLNLAQSKNFHLRPRDLISNINVIVLELKGSETTFMCEYADETATIVEFLNRWITFCHSIISTLT
Regarding B2, the “pSTAT5 ratio YT CD25/YT, dilution factor 2, lower table” value was 1; the “pSTAT5 ratio YT CD25/YT, dilution factor 4, lower table” value was found to be 1.2; the “pSTAT5 ratio YT CD25/YT, dilution factor 8, lower table” value was found to be 1.8; the “pSTAT5 ratio YT CD25/YT, dilution factor 16, lower table” value was 3.1. The “pSTAT5 ratio YT CD25/YT, dilution factor 32, lower table” value was 5.6; the “pSTAT5 ratio YT CD25/YT, dilution factor 64, lower table” value worked out at 8.3; the “pSTAT5 ratio YT CD25/YT, dilution factor 128, lower table” value was 11.8.

B3: YEH (ligand)
cytokine: APTSSSTKKTQLQLEHLYLDLEMILNGINNYKNPKLTRMLTFKFYMPKKATELKHLQCLEEELKPLEEVLNLAQSKNFHLRPRDLISNINVIVLELKGSETTFMCEYADETATIVEFLNRWITFCHSIISTLT
B3: the “pSTAT5 ratio YT CD25/YT, dilution factor 2, lower table” value is 0.8; the “pSTAT5 ratio YT CD25/YT, dilution factor 4, lower table” value stood at 0.9; the “pSTAT5 ratio YT CD25/YT, dilution factor 8, lower table” value amounted to 1; the “pSTAT5 ratio YT CD25/YT, dilution factor 16, lower table” value was 1.2. The “pSTAT5 ratio YT CD25/YT, dilution factor 32, lower table” value is 1.5; the “pSTAT5 ratio YT CD25/YT, dilution factor 64, lower table” value was determined as 2; the “pSTAT5 ratio YT CD25/YT, dilution factor 128, lower table” value was found to be 3.4.

B4: QEH (ligand)
cytokine: APTSSSTKKTQLQLEHLQLDLEMILNGINNYKNPKLTRMLTFKFYMPKKATELKHLQCLEEELKPLEEVLNLAQSKNFHLRPRDLISNINVIVLELKGSETTFMCEYADETATIVEFLNRWITFCHSIISTLT
B4: the “pSTAT5 ratio YT CD25/YT, dilution factor 2, upper table” value is 1.1; the “pSTAT5 ratio YT CD25/YT, dilution factor 4, upper table” value was 1.3; the “pSTAT5 ratio YT CD25/YT, dilution factor 8, upper table” value is 1.8; the “pSTAT5 ratio YT CD25/YT, dilution factor 16, upper table” value was found to be 3.1. Moreover, the “pSTAT5 ratio YT CD25/YT, dilution factor 32, upper table” value is 5.8; the “pSTAT5 ratio YT CD25/YT, dilution factor 64, upper table” value was found to be 8.3; the “pSTAT5 ratio YT CD25/YT, dilution factor 128, upper table” value turned out to be 11.7.

B5: VEH (ligand)
cytokine: APTSSSTKKTQLQLEHLVLDLEMILNGINNYKNPKLTRMLTFKFYMPKKATELKHLQCLEEELKPLEEVLNLAQSKNFHLRPRDLISNINVIVLELKGSETTFMCEYADETATIVEFLNRWITFCHSIISTLT
B5: the “pSTAT5 ratio YT CD25/YT, dilution factor 2, upper table” value came out at 1.2; the “pSTAT5 ratio YT CD25/YT, dilution factor 4, upper table” value is 1.6; the “pSTAT5 ratio YT CD25/YT, dilution factor 8, upper table” value was 2.4; the “pSTAT5 ratio YT CD25/YT, dilution factor 16, upper table” value worked out at 3.6. Moreover, the “pSTAT5 ratio YT CD25/YT, dilution factor 32, upper table” value was found to be 6.3; the “pSTAT5 ratio YT CD25/YT, dilution factor 64, upper table” value was 10.9; the “pSTAT5 ratio YT CD25/YT, dilution factor 128, upper table” value was 14.8.

B6: SEH (ligand)
cytokine: APTSSSTKKTQLQLEHLSLDLEMILNGINNYKNPKLTRMLTFKFYMPKKATELKHLQCLEEELKPLEEVLNLAQSKNFHLRPRDLISNINVIVLELKGSETTFMCEYADETATIVEFLNRWITFCHSIISTLT
B6: the “pSTAT5 ratio YT CD25/YT, dilution factor 2, upper table” value was found to be 1.2; the “pSTAT5 ratio YT CD25/YT, dilution factor 4, upper table” value is 1.5; the “pSTAT5 ratio YT CD25/YT, dilution factor 8, upper table” value is 2.5; the “pSTAT5 ratio YT CD25/YT, dilution factor 16, upper table” value amounted to 4. The “pSTAT5 ratio YT CD25/YT, dilution factor 32, upper table” value amounted to 7.8; the “pSTAT5 ratio YT CD25/YT, dilution factor 64, upper table” value was 11.4; the “pSTAT5 ratio YT CD25/YT, dilution factor 128, upper table” value was found to be 15.1.

B7: FEH (ligand)
cytokine: APTSSSTKKTQLQLEHLFLDLEMILNGINNYKNPKLTRMLTFKFYMPKKATELKHLQCLEEELKPLEEVLNLAQSKNFHLRPRDLISNINVIVLELKGSETTFMCEYADETATIVEFLNRWITFCHSIISTLT
In the case of B7, the “pSTAT5 ratio YT CD25/YT, dilution factor 2, upper table” value worked out at 0.9; the “pSTAT5 ratio YT CD25/YT, dilution factor 4, upper table” value turned out to be 1.2; the “pSTAT5 ratio YT CD25/YT, dilution factor 8, upper table” value was 1.3; the “pSTAT5 ratio YT CD25/YT, dilution factor 16, upper table” value is 1.4. Moreover, the “pSTAT5 ratio YT CD25/YT, dilution factor 32, upper table” value stood at 1.7; the “pSTAT5 ratio YT CD25/YT, dilution factor 64, upper table” value turned out to be 2.9; the “pSTAT5 ratio YT CD25/YT, dilution factor 128, upper table” value came to 4.7.

B8: IEH (ligand)
cytokine: APTSSSTKKTQLQLEHLILDLEMILNGINNYKNPKLTRMLTFKFYMPKKATELKHLQCLEEELKPLEEVLNLAQSKNFHLRPRDLISNINVIVLELKGSETTFMCEYADETATIVEFLNRWITFCHSIISTLT
On to B8, for which the “pSTAT5 ratio YT CD25/YT, dilution factor 2, upper table” value turned out to be 1.2; the “pSTAT5 ratio YT CD25/YT, dilution factor 4, upper table” value is 1.4; the “pSTAT5 ratio YT CD25/YT, dilution factor 8, upper table” value turned out to be 1.6; the “pSTAT5 ratio YT CD25/YT, dilution factor 16, upper table” value is 2.6. Also, the “pSTAT5 ratio YT CD25/YT, dilution factor 32, upper table” value was determined as 4.6; the “pSTAT5 ratio YT CD25/YT, dilution factor 64, upper table” value was 7.2; the “pSTAT5 ratio YT CD25/YT, dilution factor 128, upper table” value is 10.9.

B9: WEH (ligand)
cytokine: APTSSSTKKTQLQLEHLWLDLEMILNGINNYKNPKLTRMLTFKFYMPKKATELKHLQCLEEELKPLEEVLNLAQSKNFHLRPRDLISNINVIVLELKGSETTFMCEYADETATIVEFLNRWITFCHSIISTLT
For B9, the “pSTAT5 ratio YT CD25/YT, dilution factor 2, upper table” value was 1.1; the “pSTAT5 ratio YT CD25/YT, dilution factor 4, upper table” value stood at 1.4; the “pSTAT5 ratio YT CD25/YT, dilution factor 8, upper table” value stood at 1.5; the “pSTAT5 ratio YT CD25/YT, dilution factor 16, upper table” value worked out at 2.2. For the same molecule, the “pSTAT5 ratio YT CD25/YT, dilution factor 32, upper table” value was found to be 3.9; the “pSTAT5 ratio YT CD25/YT, dilution factor 64, upper table” value amounted to 6.4; the “pSTAT5 ratio YT CD25/YT, dilution factor 128, upper table” value is 10.

B10: EEH (ligand)
cytokine: APTSSSTKKTQLQLEHLELDLEMILNGINNYKNPKLTRMLTFKFYMPKKATELKHLQCLEEELKPLEEVLNLAQSKNFHLRPRDLISNINVIVLELKGSETTFMCEYADETATIVEFLNRWITFCHSIISTLT
In the case of B10, the “pSTAT5 ratio YT CD25/YT, dilution factor 2, upper table” value amounted to 1.4; the “pSTAT5 ratio YT CD25/YT, dilution factor 4, upper table” value stood at 2.3; the “pSTAT5 ratio YT CD25/YT, dilution factor 8, upper table” value turned out to be 4.8; the “pSTAT5 ratio YT CD25/YT, dilution factor 16, upper table” value turned out to be 8.4. Also, the “pSTAT5 ratio YT CD25/YT, dilution factor 32, upper table” value is 14.7; the “pSTAT5 ratio YT CD25/YT, dilution factor 64, upper table” value came out at 16.9; the “pSTAT5 ratio YT CD25/YT, dilution factor 128, upper table” value stood at 17.

B11: KEH (ligand)
cytokine: APTSSSTKKTQLQLEHLKLDLEMILNGINNYKNPKLTRMLTFKFYMPKKATELKHLQCLEEELKPLEEVLNLAQSKNFHLRPRDLISNINVIVLELKGSETTFMCEYADETATIVEFLNRWITFCHSIISTLT
Take B11: the “pSTAT5 ratio YT CD25/YT, dilution factor 2, upper table” value was determined as 1.1; the “pSTAT5 ratio YT CD25/YT, dilution factor 4, upper table” value was found to be 1; the “pSTAT5 ratio YT CD25/YT, dilution factor 8, upper table” value stood at 1.1; the “pSTAT5 ratio YT CD25/YT, dilution factor 16, upper table” value amounted to 1.4. Further, the “pSTAT5 ratio YT CD25/YT, dilution factor 32, upper table” value is 1.6; the “pSTAT5 ratio YT CD25/YT, dilution factor 64, upper table” value worked out at 2.3; the “pSTAT5 ratio YT CD25/YT, dilution factor 128, upper table” value turned out to be 4.

Source of the values: patent publication US20210275641A1 (SYNTHEKINE, published 2021).
